Measurements: paper PMC10496494

How the values were obtained:
[1] = target: NPM1 (human wildtype nucleophosmin, residues 1 to 290) (human) (UniProt P06748); experiment: SPR; Biacore T200; NPM1 immobilised on CM5 chip by amine coupling, DDX24 injected in a concentration series; PBS with 0.05% Tween-20 and 1% DMSO, pH 7.4, 25 °C; Langmuir 1:1 binding model
[2] = target: DDX24^E271K (DDX24 with the p.Glu271Lys mutation of MOVLD patients) (human) (UniProt Q9GZR7); experiment: SPR; Biacore T200; DDX24 immobilised on CM5 chip by amine coupling, NPM1 injected in a concentration series; PBS with 0.05% Tween-20 and 1% DMSO, pH 7.4, 25 °C; Langmuir 1:1 binding model

Sequence of NPM1 (human wildtype nucleophosmin, residues 1 to 290) (human) (P06748 1-290): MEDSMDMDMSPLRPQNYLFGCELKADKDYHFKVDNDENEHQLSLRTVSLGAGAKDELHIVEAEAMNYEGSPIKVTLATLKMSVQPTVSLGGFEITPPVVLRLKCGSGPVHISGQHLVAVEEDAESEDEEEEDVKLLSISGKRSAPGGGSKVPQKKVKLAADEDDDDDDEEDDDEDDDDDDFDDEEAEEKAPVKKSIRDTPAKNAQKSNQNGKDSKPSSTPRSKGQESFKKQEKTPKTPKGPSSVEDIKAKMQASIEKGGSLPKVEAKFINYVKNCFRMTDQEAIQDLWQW
Sequence of NPM1 (human wildtype nucleophosmin, residues 1 to 290) (P06748 1-290): as above

Kd [1] [nM]	koff [1] [s⁻¹]	kon [1] [M⁻¹ s⁻¹]	Kd [2] [nM]	koff [2] [s⁻¹]	kon [2] [M⁻¹ s⁻¹]	Substance
5.5	0.00316	575000				DDX24^E271K (DDX24 with the p.Glu271Lys mutation of MOVLD patients) (from UniProt Q9GZR7 28-859) (enzyme)
			2.92	0.00165	564000	NPM1 (human wildtype nucleophosmin, residues 1 to 290) (from UniProt P06748 1-290) (natural protein)
